Consider 55 molecules from PMC12416549 (2024).

Changes are numbered by the printed parent chain. Numbers in names are those of the source.

In the experiment the target is T1, TNFR1 (Homo sapiens, UniProt P19438).
T1 chain: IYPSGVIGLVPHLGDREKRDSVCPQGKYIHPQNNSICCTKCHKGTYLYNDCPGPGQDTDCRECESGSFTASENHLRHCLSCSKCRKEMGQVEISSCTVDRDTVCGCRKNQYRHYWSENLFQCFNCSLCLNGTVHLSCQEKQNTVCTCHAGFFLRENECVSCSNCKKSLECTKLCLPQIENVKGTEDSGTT
Put plainly: yeast display SC50.

B1: A87D (designed binder)
chain: MTLQELLREEALRRAEAEAFRYALELLAEKFPEQKEYLLDLAEEIESQIRSLSGVDVEDVRKFLDKEWAWVKELLAEHPAELAEVEDARAARLAELRAEVEAKVAA
Turning to B1, the “apparent Kd (screen)” value came out at 0.49 nM.

B2: E84H (designed binder)
chain: B1 chain with E84H, D87A
For the molecule B2, the “apparent Kd (screen)” value was found to be 0.869 nM.

B3: A83D (designed binder)
chain: B1 chain with A83D, D87A
On to B3, for which the “apparent Kd (screen)” value was 0.49 nM.

B4: A98D (designed binder)
chain: B1 chain with D87A, A98D
With B4, the “apparent Kd (screen)” value amounted to 0.718 nM.

B5: A17N (designed binder)
chain: B1 chain with A17N, D87A
For B5, the “apparent Kd (screen)” value came to 0.593 nM.

B6: E77F (designed binder)
chain: B1 chain with E77F, D87A
B6: the “apparent Kd (screen)” value is 0.446 nM.

B7: K35D (designed binder)
chain: B1 chain with K35D, D87A
For B7, the “apparent Kd (screen)” value turned out to be 1.27 nM.

B8: E67L (designed binder)
chain: B1 chain with E67L, D87A
Turning to B8, the “apparent Kd (screen)” value is 10.4 nM.

B9: L24Y (designed binder)
chain: B1 chain with L24Y, D87A
In the case of B9, the “apparent Kd (screen)” value was 0.539 nM.

B10: L64S (designed binder)
chain: B1 chain with L64S, D87A
Consider B10, for which the “apparent Kd (screen)” value was determined as 24.4 nM.

B11: R8L (designed binder)
chain: B1 chain with R8L, D87A
Consider B11, for which the “apparent Kd (screen)” value was found to be 0.869 nM.

B12: E9A (designed binder)
chain: B1 chain with E9A, D87A
In the case of B12, the “apparent Kd (screen)” value came to 1.4 nM.

B13: W70N (designed binder)
chain: B1 chain with W70N, D87A
For B13, the “apparent Kd (screen)” value was determined as 18.3 nM.

B14: V104C (designed binder)
chain: B1 chain with D87A, V104C
Turning to B14, the “apparent Kd (screen)” value is 0.49 nM.

B15: A23Q (designed binder)
chain: B1 chain with A23Q, D87A
Regarding B15, the “apparent Kd (screen)” value was 0.539 nM.

B16: A15C (designed binder)
chain: B1 chain with A15C, D87A
Consider B16, for which the “apparent Kd (screen)” value amounted to 0.539 nM.

B17: L82M (designed binder)
chain: B1 chain with L82M, D87A
In the case of B17, the “apparent Kd (screen)” value stood at 0.49 nM.

B18: E84G (designed binder)
chain: B1 chain with E84G, D87A
Consider B18, for which the “apparent Kd (screen)” value is 0.539 nM.

B19: S47W (designed binder)
chain: B1 chain with S47W, D87A
B19: the “apparent Kd (screen)” value came to 0.277 nM.

B20: R14D (designed binder)
chain: B1 chain with R14D, D87A
Take B20: the “apparent Kd (screen)” value worked out at 0.335 nM.

B21: A91W (designed binder)
chain: B1 chain with D87A, A91W
On to B21, for which the “apparent Kd (screen)” value was found to be 0.718 nM.

B22: W70Q (designed binder)
chain: B1 chain with W70Q, D87A
For the molecule B22, the “apparent Kd (screen)” value turned out to be 15.2 nM.

B23: E84Q (designed binder)
chain: B1 chain with E84Q, D87A
For the molecule B23, the “apparent Kd (screen)” value turned out to be 0.869 nM.

B24: E58P (designed binder)
chain: B1 chain with E58P, D87A
Consider B24, for which the “apparent Kd (screen)” value came out at 0.718 nM.

B25: A28F (designed binder)
chain: B1 chain with A28F, D87A
B25: the “apparent Kd (screen)” value amounted to 12.5 nM.

B26: L6P (designed binder)
chain: B1 chain with L6P, D87A
Regarding B26, the “apparent Kd (screen)” value was found to be 4.39 nM.

B27: R92L (designed binder)
chain: B1 chain with D87A, R92L
B27: the “apparent Kd (screen)” value was 0.446 nM.

B28: L39I (designed binder)
chain: B1 chain with L39I, D87A
Take B28: the “apparent Kd (screen)” value was determined as 0.653 nM.

B29: R14A (designed binder)
chain: B1 chain with R14A, D87A
For B29, the “apparent Kd (screen)” value was determined as 0.49 nM.

B30: G54F (designed binder)
chain: B1 chain with G54F, D87A
Consider B30, for which the “apparent Kd (screen)” value came out at 12.5 nM.

B31: W68G (designed binder)
chain: B1 chain with W68G, D87A
On to B31, for which the “apparent Kd (screen)” value was 0.718 nM.

B32: L93S (designed binder)
chain: B1 chain with D87A, L93S
Regarding B32, the “apparent Kd (screen)” value is 1.05 nM.

B33: L74V (designed binder)
chain: B1 chain with L74V, D87A
B33: the “apparent Kd (screen)” value was 2.48 nM.

B34: P32F (designed binder)
chain: B1 chain with P32F, D87A
With B34, the “apparent Kd (screen)” value came out at 0.653 nM.

B35: S51Y (designed binder)
chain: B1 chain with S51Y, D87A
Regarding B35, the “apparent Kd (screen)” value was found to be 0.252 nM.

B36: F31K (designed binder)
chain: B1 chain with F31K, D87A
For B36, the “apparent Kd (screen)” value worked out at 1.16 nM.

B37: L3Y (designed binder)
chain: B1 chain with L3Y, D87A
As to B37, the “apparent Kd (screen)” value was determined as 0.593 nM.

B38: R13W (designed binder)
chain: B1 chain with R13W, D87A
For the molecule B38, the “apparent Kd (screen)” value stood at 0.252 nM.

B39: E95H (designed binder)
chain: B1 chain with D87A, E95H
Regarding B39, the “apparent Kd (screen)” value turned out to be 0.653 nM.

B40: E67Y (designed binder)
chain: B1 chain with E67Y, D87A
Regarding B40, the “apparent Kd (screen)” value was determined as 3.63 nM.

B41: A94N (designed binder)
chain: B1 chain with D87A, A94N
On to B41, for which the “apparent Kd (screen)” value turned out to be 0.653 nM.

B42: R89T (designed binder)
chain: B1 chain with D87A, R89T
On to B42, for which the “apparent Kd (screen)” value came to 0.446 nM.

B43: Y22Q (designed binder)
chain: B1 chain with Y22Q, D87A
As for B43, the “apparent Kd (screen)” value came to 0.49 nM.

B44: E43C (designed binder)
chain: B1 chain with E43C, D87A
B44: the “apparent Kd (screen)” value worked out at 0.405 nM.

B45: E77S (designed binder)
chain: B1 chain with E77S, D87A
In the case of B45, the “apparent Kd (screen)” value turned out to be 1.05 nM.

B46: I49V (designed binder)
chain: B1 chain with I49V, D87A
B46: the “apparent Kd (screen)” value was 2.05 nM.

B47: E44C (designed binder)
chain: B1 chain with E44C, D87A
Turning to B47, the “apparent Kd (screen)” value is 20.2 nM.

B48: A94F (designed binder)
chain: B1 chain with D87A, A94F
In the case of B48, the “apparent Kd (screen)” value came out at 0.593 nM.

B49: Q34A (designed binder)
chain: B1 chain with Q34A, D87A
As to B49, the “apparent Kd (screen)” value was found to be 0.593 nM.

B50: E73L (designed binder)
chain: B1 chain with E73L, D87A
Regarding B50, the “apparent Kd (screen)” value was 0.653 nM.

B51: A19R (designed binder)
chain: B1 chain with A19R, D87A
On to B51, for which the “apparent Kd (screen)” value worked out at 3.99 nM.

B52: E77T (designed binder)
chain: B1 chain with E77T, D87A
Turning to B52, the “apparent Kd (screen)” value turned out to be 0.49 nM.

B53: K72Q (designed binder)
chain: B1 chain with K72Q, D87A
As to B53, the “apparent Kd (screen)” value is 0.539 nM.

B54: D40L (designed binder)
chain: B1 chain with D40L, D87A
Turning to B54, the “apparent Kd (screen)” value was determined as 1.4 nM.

B55: E81A (designed binder)
chain: B1 chain with E81A, D87A
Regarding B55, the “apparent Kd (screen)” value stood at 0.718 nM.
